Measured values taken from patent US20240279278A1, “NMU RECEPTOR 2 AGONISTS” (Boehringer Ingelheim International GmbH, priority 2023, published 2024).

T1: human neuromedin U receptor 1 (human, UniProt Q9HB89 24-426)
T1 sequence (looked up): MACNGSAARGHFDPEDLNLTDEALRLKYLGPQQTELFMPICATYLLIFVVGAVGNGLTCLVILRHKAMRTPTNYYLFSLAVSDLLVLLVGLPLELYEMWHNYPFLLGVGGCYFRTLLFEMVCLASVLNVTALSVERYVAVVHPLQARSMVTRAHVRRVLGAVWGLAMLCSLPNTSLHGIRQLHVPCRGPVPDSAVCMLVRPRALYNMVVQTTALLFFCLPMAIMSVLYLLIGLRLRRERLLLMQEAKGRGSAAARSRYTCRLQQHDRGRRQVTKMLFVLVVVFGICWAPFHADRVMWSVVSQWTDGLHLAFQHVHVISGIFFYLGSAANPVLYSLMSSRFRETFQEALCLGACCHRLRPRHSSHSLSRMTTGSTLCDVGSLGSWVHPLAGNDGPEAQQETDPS


The binders below were run against T1, human neuromedin U receptor 1 (assay: cell-based or functional assay).

| Binder | EC50 (hNMUR1) buffer [nM] |
| --- | --- |
| EEXXXXXXXXXXYFLXRPRG (HELM PEPTIDE1{[O=C(O)CCCCCCCCCCCCCCCCC(=O)[*:2]].[gGlu].[gGlu].[Sar].[Sar].[Sar].[Sar].[Sar].[Sar].[Sar].[Sar].[Sar].[O=C(CN1CCN(CCN[*:1])CC1)[*:2]].Y.F.[meL].[Nle].R.P.R.G.[am]}$$$$V2.0; SMILES CCCC[C@H](NC(=O)[C@H](CC(C)C)N(C)C(=O)[C@H](Cc1ccccc1)NC(=O)[C@H](Cc1ccc(O)cc1)NC(=O)CN1CCN(CCNC(=O)CN(C)C(=O)CN(C)C(=O)CN(C)C(=O)CN(C)C(=O)CN(C)C(=O)CN(C)C(=O)CN(C)C(=O)CN(C)C(=O)CN(C)C(=O)CC[C@H](NC(=O)CC[C@H](NC(=O)CCCCCCCCCCCCCCCCC(=O)O)C(=O)O)C(=O)O)CC1)C(=O)N[C@@H](CCCNC(=N)N)C(=O)N1CCC[C@H]1C(=O)N[C@@H](CCCNC(=N)N)C(=O)NCC(N)=O) [C18DA-gGlu2-Sar9-AEPipAc-Tyr-Phe-NMeLeu-Nle-Arg-Pro-Arg-Gly-NH2] | 90 |
| EEEXXXXXXXXXXYFLXRPRG (HELM PEPTIDE1{[O=C(O)CCCCCCCCCCCCCCCCC(=O)[*:2]].[gGlu].[gGlu].[gGlu].[Sar].[Sar].[Sar].[Sar].[Sar].[Sar].[Sar].[Sar].[Sar].[O=C(CN1CCN(CCN[*:1])CC1)[*:2]].Y.F.[meL].[Nle].R.P.R.G.[am]}$$$$V2.0; SMILES CCCC[C@H](NC(=O)[C@H](CC(C)C)N(C)C(=O)[C@H](Cc1ccccc1)NC(=O)[C@H](Cc1ccc(O)cc1)NC(=O)CN1CCN(CCNC(=O)CN(C)C(=O)CN(C)C(=O)CN(C)C(=O)CN(C)C(=O)CN(C)C(=O)CN(C)C(=O)CN(C)C(=O)CN(C)C(=O)CN(C)C(=O)CC[C@H](NC(=O)CC[C@H](NC(=O)CC[C@H](NC(=O)CCCCCCCCCCCCCCCCC(=O)O)C(=O)O)C(=O)O)C(=O)O)CC1)C(=O)N[C@@H](CCCNC(=N)N)C(=O)N1CCC[C@H]1C(=O)N[C@@H](CCCNC(=N)N)C(=O)NCC(N)=O) [C18DA-gGlu3-Sar9-AEPipAc-Tyr-Phe-NMeLeu-Nle-Arg-Pro-Arg-Gly-NH2] | 150 |
| EEEXXXXXXXXXXYFLXRARG (HELM PEPTIDE1{[O=C(O)CCCCCCCCCCCCCCCCCCC(=O)[*:2]].[gGlu].[gGlu].[gGlu].[Sar].[Sar].[Sar].[Sar].[Sar].[Sar].[Sar].[Sar].[Sar].[O=C(CN1CCN(CCN[*:1])CC1)[*:2]].Y.F.[meL].[Nle].R.[meA].R.G.[am]}$$$$V2.0; SMILES CCCC[C@H](NC(=O)[C@H](CC(C)C)N(C)C(=O)[C@H](Cc1ccccc1)NC(=O)[C@H](Cc1ccc(O)cc1)NC(=O)CN1CCN(CCNC(=O)CN(C)C(=O)CN(C)C(=O)CN(C)C(=O)CN(C)C(=O)CN(C)C(=O)CN(C)C(=O)CN(C)C(=O)CN(C)C(=O)CN(C)C(=O)CC[C@H](NC(=O)CC[C@H](NC(=O)CC[C@H](NC(=O)CCCCCCCCCCCCCCCCCCC(=O)O)C(=O)O)C(=O)O)C(=O)O)CC1)C(=O)N[C@@H](CCCNC(=N)N)C(=O)N(C)[C@@H](C)C(=O)N[C@@H](CCCNC(=N)N)C(=O)NCC(N)=O) [C20DA-gGlu3-Sar9-AEPipAc-Tyr-Phe-NMeLeu-Nle-Arg-NMeAla-Arg-Gly-NH2] | 440 |
| EEEXXXXXXXXXXYFLXXARG (HELM PEPTIDE1{[O=C(O)CCCCCCCCCCCCCCCCC(=O)[*:2]].[gGlu].[gGlu].[gGlu].[Sar].[Sar].[Sar].[Sar].[Sar].[Sar].[Sar].[Sar].[Sar].[O=C(CN1CCN(CCN[*:1])CC1)[*:2]].Y.F.[meL].[Nle].[Orn].[meA].R.G.[am]}$$$$V2.0; SMILES CCCC[C@H](NC(=O)[C@H](CC(C)C)N(C)C(=O)[C@H](Cc1ccccc1)NC(=O)[C@H](Cc1ccc(O)cc1)NC(=O)CN1CCN(CCNC(=O)CN(C)C(=O)CN(C)C(=O)CN(C)C(=O)CN(C)C(=O)CN(C)C(=O)CN(C)C(=O)CN(C)C(=O)CN(C)C(=O)CN(C)C(=O)CC[C@H](NC(=O)CC[C@H](NC(=O)CC[C@H](NC(=O)CCCCCCCCCCCCCCCCC(=O)O)C(=O)O)C(=O)O)C(=O)O)CC1)C(=O)N[C@@H](CCCN)C(=O)N(C)[C@@H](C)C(=O)N[C@@H](CCCNC(=N)N)C(=O)NCC(N)=O) [C18DA-gGlu3-Sar9-AEPipAc-Tyr-Phe-NMeLeu-Nle-Orn-NMeAla-Arg-Gly-NH2] | > 1000 |
| EEEXXXXXXXYFLXRPRG (HELM PEPTIDE1{[O=C(O)CCCCCCCCCCCCCCCCC(=O)[*:2]].[gGlu].[gGlu].[gGlu].[Sar].[Sar].[Sar].[Sar].[Sar].[Sar].[O=C(CN1CCN(CCN[*:1])CC1)[*:2]].Y.F.[meL].[Nle].R.P.R.G.[am]}$$$$V2.0; SMILES CCCC[C@H](NC(=O)[C@H](CC(C)C)N(C)C(=O)[C@H](Cc1ccccc1)NC(=O)[C@H](Cc1ccc(O)cc1)NC(=O)CN1CCN(CCNC(=O)CN(C)C(=O)CN(C)C(=O)CN(C)C(=O)CN(C)C(=O)CN(C)C(=O)CN(C)C(=O)CC[C@H](NC(=O)CC[C@H](NC(=O)CC[C@H](NC(=O)CCCCCCCCCCCCCCCCC(=O)O)C(=O)O)C(=O)O)C(=O)O)CC1)C(=O)N[C@@H](CCCNC(=N)N)C(=O)N1CCC[C@H]1C(=O)N[C@@H](CCCNC(=N)N)C(=O)NCC(N)=O) [C18DA-gGlu3-Sar6-AEPipAc-Tyr-Phe-NMeLeu-Nle-Arg-Pro-Arg-Gly-NH2] | 82 |
| EEEXXXXXXXXXXXXXYFLXRARG (HELM PEPTIDE1{[O=C(O)CCCCCCCCCCCCCCCCCCC(=O)[*:2]].[gGlu].[gGlu].[gGlu].[Sar].[Sar].[Sar].[Sar].[Sar].[Sar].[Sar].[Sar].[Sar].[Sar].[Sar].[Sar].[O=C(CN1CCN(CCN[*:1])CC1)[*:2]].Y.F.[meL].[Nle].R.[meA].R.G.[am]}$$$$V2.0; SMILES CCCC[C@H](NC(=O)[C@H](CC(C)C)N(C)C(=O)[C@H](Cc1ccccc1)NC(=O)[C@H](Cc1ccc(O)cc1)NC(=O)CN1CCN(CCNC(=O)CN(C)C(=O)CN(C)C(=O)CN(C)C(=O)CN(C)C(=O)CN(C)C(=O)CN(C)C(=O)CN(C)C(=O)CN(C)C(=O)CN(C)C(=O)CN(C)C(=O)CN(C)C(=O)CN(C)C(=O)CC[C@H](NC(=O)CC[C@H](NC(=O)CC[C@H](NC(=O)CCCCCCCCCCCCCCCCCCC(=O)O)C(=O)O)C(=O)O)C(=O)O)CC1)C(=O)N[C@@H](CCCNC(=N)N)C(=O)N(C)[C@@H](C)C(=O)N[C@@H](CCCNC(=N)N)C(=O)NCC(N)=O) [C20DA-gGlu3-Sar12-AEPipAc-Tyr-Phe-NMeLeu-Nle-Arg-NMeAla-Arg-Gly-NH2] | 670 |
| EEEXXXXXXXXXXYFLXXARG (HELM PEPTIDE1{[O=C(O)CCCCCCCCCCCCCCCCCCC(=O)[*:2]].[gGlu].[gGlu].[gGlu].[Sar].[Sar].[Sar].[Sar].[Sar].[Sar].[Sar].[Sar].[Sar].[O=C(CN1CCN(CCN[*:1])CC1)[*:2]].Y.F.[meL].[Nle].[Dab].[meA].R.G.[am]}$$$$V2.0; SMILES CCCC[C@H](NC(=O)[C@H](CC(C)C)N(C)C(=O)[C@H](Cc1ccccc1)NC(=O)[C@H](Cc1ccc(O)cc1)NC(=O)CN1CCN(CCNC(=O)CN(C)C(=O)CN(C)C(=O)CN(C)C(=O)CN(C)C(=O)CN(C)C(=O)CN(C)C(=O)CN(C)C(=O)CN(C)C(=O)CN(C)C(=O)CC[C@H](NC(=O)CC[C@H](NC(=O)CC[C@H](NC(=O)CCCCCCCCCCCCCCCCCCC(=O)O)C(=O)O)C(=O)O)C(=O)O)CC1)C(=O)N[C@@H](CCN)C(=O)N(C)[C@@H](C)C(=O)N[C@@H](CCCNC(=N)N)C(=O)NCC(N)=O) [C20DA-gGlu3-Sar9-AEPipAc-Tyr-Phe-NMeLeu-Nle-Dbu-NMeAla-Arg-Gly-NH2] | > 1000 |
| EEXXXXXXXYFLXRPRG (HELM PEPTIDE1{[O=C(O)CCCCCCCCCCCCCCCCC(=O)[*:2]].[gGlu].[gGlu].[Sar].[Sar].[Sar].[Sar].[Sar].[Sar].[O=C(CN1CCN(CCN[*:1])CC1)[*:2]].Y.F.[meL].[Nle].R.P.R.G.[am]}$$$$V2.0; SMILES CCCC[C@H](NC(=O)[C@H](CC(C)C)N(C)C(=O)[C@H](Cc1ccccc1)NC(=O)[C@H](Cc1ccc(O)cc1)NC(=O)CN1CCN(CCNC(=O)CN(C)C(=O)CN(C)C(=O)CN(C)C(=O)CN(C)C(=O)CN(C)C(=O)CN(C)C(=O)CC[C@H](NC(=O)CC[C@H](NC(=O)CCCCCCCCCCCCCCCCC(=O)O)C(=O)O)C(=O)O)CC1)C(=O)N[C@@H](CCCNC(=N)N)C(=O)N1CCC[C@H]1C(=O)N[C@@H](CCCNC(=N)N)C(=O)NCC(N)=O) [C18DA-gGlu2-Sar6-AEPipAc-Tyr-Phe-NMeLeu-Nle-Arg-Pro-Arg-Gly-NH2] | 130 |
| EEXXXXXXXXXXYFLXRARG (HELM PEPTIDE1{[O=C(O)CCCCCCCCCCCCCCCCC(=O)[*:2]].[gGlu].[gGlu].[Sar].[Sar].[Sar].[Sar].[Sar].[Sar].[Sar].[Sar].[Sar].[O=C(CN1CCN(CCN[*:1])CC1)[*:2]].Y.F.[meL].[Nle].R.[meA].R.G.[am]}$$$$V2.0; SMILES CCCC[C@H](NC(=O)[C@H](CC(C)C)N(C)C(=O)[C@H](Cc1ccccc1)NC(=O)[C@H](Cc1ccc(O)cc1)NC(=O)CN1CCN(CCNC(=O)CN(C)C(=O)CN(C)C(=O)CN(C)C(=O)CN(C)C(=O)CN(C)C(=O)CN(C)C(=O)CN(C)C(=O)CN(C)C(=O)CN(C)C(=O)CC[C@H](NC(=O)CC[C@H](NC(=O)CCCCCCCCCCCCCCCCC(=O)O)C(=O)O)C(=O)O)CC1)C(=O)N[C@@H](CCCNC(=N)N)C(=O)N(C)[C@@H](C)C(=O)N[C@@H](CCCNC(=N)N)C(=O)NCC(N)=O) [C18DA-gGlu2-Sar9-AEPipAc-Tyr-Phe-NMeLeu-Nle-Arg-NMeAla-Arg-Gly-NH2] | 550 |
